Consider 5 substances from patent publication US9944688B2, “Non-peptidyl polymer-insulin multimer and method for producing the same” (HANMI SCIENCE CO., LTD., priority 2011, dated 2018).

Data set [1] can be described thus: Measurement of hydrodynamic volume by size exclusion chromatography. Particulars: for Hydrodynamic volume: SEC Superdex 200 10/300 GL, regression line from standard proteins; for Hydrodynamic volume, times larger than monomer: hexamer versus monomer. Type of data set: physicochemical. The procedure:
PEG-insulin conjugates in 20 mM HEPES buffer (pH 8.2) were mixed with a cobalt chloride solution to a ratio of cobalt to hexamer of 3:1. To convert divalent cobalt ions into trivalent cobalt ions, hydrogen peroxide corresponding to twice of the total divalent cobalt ions was added, and left at room temperature for 2 h. Thereafter, cobalt PEG-insulin hexamers were isolated by SEC (size exclusion chromatography).
Column: Superdex 200 16/60 prep grade (GE Healthcare)
Buffer: 20 mM HEPES pH 8.2+0.2 M NaCl
Hydrodynamic volume of the PEG-insulin conjugate or the cobalt PEG-insulin hexamer was measured according to the conditions described in Example 4, except that Superdex 200 10/300 GL was used as a column. The regression line was calculated from the elution volume of standard protein. Partition coefficient (Kav) is defined as follows. Kav=(Ve−V0)/(Vt−V0)
Ve represents the elution volume, V0 represents the void volume determined by Blue dextran, and Vt represents the bed volume.

Data set [2] is described as follows: Comparison of molecular size by size exclusion chromatography in DPBS. Type of data set: physicochemical. The conditions noted are these: SEC, DPBS buffer. The procedure:
Size exclusion chromatography was performed to indirectly predict the molecular size of subcutaneously injected insulin formulation and its size change according to natural dilution (Havelund et al., 2004). The representative commercial long-acting insulin formulations, Levemir and Lantus, were used as a control group to examine the relative molecular size of the cobalt PEG-insulin hexamer. Chromatography was performed according to the conditions described in Example 4, except that DPBS was used as a buffer solution to create subcutaneous environment.

The subject of data set [3] is murine fibroblast 3T3-L1 differentiated into adipocyte. The data set can be described thus: In vitro efficacy test: residual sugar in media of differentiated 3T3-L1 adipocytes. Type of data set: cell-based. The conditions noted are these: for EC50: differentiated 3T3-L1 adipocytes, 37° C. for 24 h, residual sugar by D-Glucose assay kit. Here is the method:
In order to differentiate murine fibroblast 3T3-L1 into adipocyte, the cell was inoculated in a 48-well plate containing a 10% FBS/DMEM media containing dexamethasone, IBMX, and insulin at a cell density of 1.0×10^5 per well. The differentiated cells were washed with DPBS three times, and cultured in a serum-free DMEM for 4 h. […] After cultivation at 37° C. for 24 h, the residual sugar concentration in the media was measured using a D-Glucose assay kit (Megazyme), and EC50 values were calculated and shown in Table 1.

For data set [4] the following is noted: after subcutaneous injection; time for half of the drug to pass the capillary wall; cited from earlier work.

As to “Cobalt PEG (5k)-insulin hexamer: hexamer of PEG (5k)-insulin conjugates complexed with trivalent cobalt ions”, in data set [1], the Hydrodynamic volume was determined as 300 kDa and the “Hydrodynamic volume, times larger than monomer” value is “approximately 5 times”. Moreover, in data set [2], the “Dissociation coefficient (Kav)” value came out at 0.20 and the Elution time is 27.63 min.

As to “Cobalt PEG (20k)-insulin hexamer: hexamer of PEG (20k)-insulin conjugates complexed with trivalent cobalt ions”, in data set [1], the Hydrodynamic volume is 1,600 kDa and the “Hydrodynamic volume, times larger than monomer” value is recorded as “approximately 10 times”. Further, in data set [2], the “Dissociation coefficient (Kav)” value is given as 0.01 and the Elution time is listed as 20.12 min.

The substance “PEG (5k)-insulin: human native insulin mono-PEGylated with 5 k mPEG-aldehyde at the amino terminus of the B chain” came in with an EC50 in data set [3] of 9.48 ± 2.77 nM. Moreover, in data set [3] (relative to human native insulin (100)), the Relative activity was found to be 60%. In addition, the Hydrodynamic volume in data set [1] came out at 60 kDa.

Regarding “PEG (20k)-insulin: human native insulin mono-PEGylated with 20 k mPEG-aldehyde at the amino terminus of the B chain”, the EC50 in data set [3] turned out to be 13.6 ± 0.71 nM.

insulin detemir: the “Subcutaneous half-life, times longer than native insulin hexamer” value in data set [4] was 4 times.
